Results as given in article doi:10.1101/2021.08.20.457142.

B1: MKK6 D-site peptide / p38-alpha (MAPK14) L195A, full length (parent complex)
chain 1: SQSKGKKRNPGLKIPKEAFEQP
chain 2: MSQERPTFYRQELNKTVWEVPERYQNLSPVGSGAYGSVCAAFDTKTGHRVAVKKLSRPFQSIIHAKRTYRELRLLKHMKHENVIGLLDVFTPARSLEEFNDVYLVTHLMGADLNNIVKCQKLTDDHVQFLIYQILRGLKYIHSADIIHRDLKPSNLAVNEDCELKILDFGLARHTDDEMTGYVATRWYRAPEIMANWMHYNQTVDIWSVGCIMAELLTGRTLFPGTDHIDQLKLILRLVGTPGAELLKKISSESARNYIQSLAQMPKMNFANVFIGANPLAVDLLEKMLVLDSDKRITAAQALAHAYFAQYHDPDDEPVAEPYDQSFESRDFLIDEWKSLTYDEVISFVPPPLDQEEMES
B2: MKK7 D-site peptide (second D-site) / JNK1 alpha1 (MAPK8 isoform 1) L198A, full length (parent complex)
chain 1: SQPQRPRPTLQLPLANEAFEQP
chain 2: MSRSKRDNNFYSVEIGDSTFTVLKRYQNLKPIGSGAQGIVCAAYDAILERNVAIKKLSRPFQNQTHAKRAYRELVLMKCVNHKNIIGLLNVFTPQKSLEEFQDVYIVMELMDANLCQVIQMELDHERMSYLLYQMLCGIKHLHSAGIIHRDLKPSNIVVKSDCTLKILDFGLARTAGTSFMMTPYVVTRYYRAPEVIAGMGYKENVDLWSVGCIMGEMVCHKILFPGRDYIDQWNKVIEQLGTPCPEFMKKLQPTVRTYVENRPKYAGYSFEKLFPDVLFPADSEHNKLKASQARDLLSKMLVIDASKRISVDEALQHPYINVWYDPSEAEAPPPKIPDKQLDEREHTIEEWKELIYKEVMDLEERTKNGVIRGQPSPLAQVQQ

Variants of: B1

screen value | Variant
1.13 Z-score of the enrichment rate within one screen of 711 sequences | chain 1 G11A
1.24 Z-score of the enrichment rate within one screen of 711 sequences | chain 1 G11M
1.68 Z-score of the enrichment rate within one screen of 711 sequences | chain 1 G11R
0.633 Z-score of the enrichment rate within one screen of 711 sequences | chain 1 K7V
0.268 Z-score of the enrichment rate within one screen of 711 sequences | chain 1 G5A, chain 1 K7A
-1.37 Z-score of the enrichment rate within one screen of 711 sequences | chain 1 L12N
-0.424 Z-score of the enrichment rate within one screen of 711 sequences | chain 1 L12V
-0.853 Z-score of the enrichment rate within one screen of 711 sequences | chain 1 L12F
-1.3 Z-score of the enrichment rate within one screen of 711 sequences | chain 1 L12K
-0.823 Z-score of the enrichment rate within one screen of 711 sequences | chain 1 I14P
-1.38 Z-score of the enrichment rate within one screen of 711 sequences | chain 1 I14S
-0.82 Z-score of the enrichment rate within one screen of 711 sequences | chain 1 I14W
-1.29 Z-score of the enrichment rate within one screen of 711 sequences | chain 1 I14G
0.119 Z-score of the enrichment rate within one screen of 711 sequences | chain 1 K13F
0.981 Z-score of the enrichment rate within one screen of 711 sequences | chain 1 K4V
0.888 Z-score of the enrichment rate within one screen of 711 sequences | chain 1 K4H

screen value | Variant
-0.109 Z-score of the enrichment rate within one screen of 711 sequences | chain 1 R8A, chain 1 G11A
-0.878 Z-score of the enrichment rate within one screen of 711 sequences | chain 1 R8A, chain 1 I14A
1.8 Z-score of the enrichment rate within one screen of 711 sequences | chain 1 K16I
-0.827 Z-score of the enrichment rate within one screen of 711 sequences | chain 1 K16D
0.278 Z-score of the enrichment rate within one screen of 711 sequences | chain 1 G11A, chain 1 K16A
4.45 Z-score of the enrichment rate within one screen of 711 sequences | chain 1 G5W
-0.319 Z-score of the enrichment rate within one screen of 711 sequences | chain 1 S3A, chain 1 K13A
1.51 Z-score of the enrichment rate within one screen of 711 sequences | chain 1 N9H
1.6 Z-score of the enrichment rate within one screen of 711 sequences | chain 1 S3P
1.29 Z-score of the enrichment rate within one screen of 711 sequences | chain 1 S3N
1.02 Z-score of the enrichment rate within one screen of 711 sequences | chain 1 N9A, chain 1 G11A
1.9 Z-score of the enrichment rate within one screen of 711 sequences | chain 1 K6R
0.315 Z-score of the enrichment rate within one screen of 711 sequences | chain 1 N9A, chain 1 P10A
0.201 Z-score of the enrichment rate within one screen of 711 sequences | chain 1 P10C
0.157 Z-score of the enrichment rate within one screen of 711 sequences | chain 1 R8Y

Variants of: B2

screen value | Variant
0.848 Z-score of the enrichment rate within one screen of 711 sequences | chain 1 T9A, chain 1 P13A
1.27 Z-score of the enrichment rate within one screen of 711 sequences | chain 1 P6M
1.28 Z-score of the enrichment rate within one screen of 711 sequences | chain 1 P6N
0.933 Z-score of the enrichment rate within one screen of 711 sequences | chain 1 P6Y
1.52 Z-score of the enrichment rate within one screen of 711 sequences | chain 1 P6K
2.16 Z-score of the enrichment rate within one screen of 711 sequences | chain 1 Q11F
0.901 Z-score of the enrichment rate within one screen of 711 sequences | chain 1 Q11P
1.45 Z-score of the enrichment rate within one screen of 711 sequences | chain 1 Q11S
1.44 Z-score of the enrichment rate within one screen of 711 sequences | chain 1 Q11A
0.914 Z-score of the enrichment rate within one screen of 711 sequences | chain 1 P6A, chain 1 P13A
-0.854 Z-score of the enrichment rate within one screen of 711 sequences | chain 1 P3A, chain 1 L12A
-0.584 Z-score of the enrichment rate within one screen of 711 sequences | chain 1 L12A, chain 1 L14A
0.187 Z-score of the enrichment rate within one screen of 711 sequences | chain 1 P6A, chain 1 R7A
-0.519 Z-score of the enrichment rate within one screen of 711 sequences | chain 1 T9A, chain 1 L10A
1.08 Z-score of the enrichment rate within one screen of 711 sequences | chain 1 P3A, chain 1 Q11A
-0.724 Z-score of the enrichment rate within one screen of 711 sequences | chain 1 P6A, chain 1 L10A
0.956 Z-score of the enrichment rate within one screen of 711 sequences | chain 1 P3A, chain 1 T9A
0.06 Z-score of the enrichment rate within one screen of 711 sequences | chain 1 R5S
0.573 Z-score of the enrichment rate within one screen of 711 sequences | chain 1 R5L
0.459 Z-score of the enrichment rate within one screen of 711 sequences | chain 1 R5Y
1.63 Z-score of the enrichment rate within one screen of 711 sequences | chain 1 P3W
1.24 Z-score of the enrichment rate within one screen of 711 sequences | chain 1 P3Q

screen value | Variant
0.556 Z-score of the enrichment rate within one screen of 711 sequences | chain 1 P6A, chain 1 L14A
1.08 Z-score of the enrichment rate within one screen of 711 sequences | chain 1 A15D
1.48 Z-score of the enrichment rate within one screen of 711 sequences | chain 1 A15N
1.68 Z-score of the enrichment rate within one screen of 711 sequences | chain 1 Q4A, chain 1 N16A
1.15 Z-score of the enrichment rate within one screen of 711 sequences | chain 1 N16S
1.61 Z-score of the enrichment rate within one screen of 711 sequences | chain 1 N16Q
1.56 Z-score of the enrichment rate within one screen of 711 sequences | chain 1 Q4V
1.41 Z-score of the enrichment rate within one screen of 711 sequences | chain 1 Q4C
1.91 Z-score of the enrichment rate within one screen of 711 sequences | chain 1 Q4K
0.92 Z-score of the enrichment rate within one screen of 711 sequences | chain 1 Q4D
-0.624 Z-score of the enrichment rate within one screen of 711 sequences | chain 1 L12Q
-0.442 Z-score of the enrichment rate within one screen of 711 sequences | chain 1 L12G
0.296 Z-score of the enrichment rate within one screen of 711 sequences | chain 1 P8E
0.456 Z-score of the enrichment rate within one screen of 711 sequences | chain 1 P8A
1.22 Z-score of the enrichment rate within one screen of 711 sequences | chain 1 P13M
1.72 Z-score of the enrichment rate within one screen of 711 sequences | chain 1 P13K
0.542 Z-score of the enrichment rate within one screen of 711 sequences | chain 1 P13G
0.328 Z-score of the enrichment rate within one screen of 711 sequences | chain 1 L14Y
0.76 Z-score of the enrichment rate within one screen of 711 sequences | chain 1 L14P
0.415 Z-score of the enrichment rate within one screen of 711 sequences | chain 1 L14H
-0.534 Z-score of the enrichment rate within one screen of 711 sequences | chain 1 L10A, chain 1 Q11A
-0.173 Z-score of the enrichment rate within one screen of 711 sequences | chain 1 L10C
